The supplement of paper PMC11246515
± gives the standard deviation of the averaged measurements.

Test: total protein half-life in vivo (active degradation + dilution); higher = more stable protein
[1] = E. coli NCM3722 delta-clpP delta-lon delta-hslV, growth: N-lim chemostat, doubling time 6 h
[2] = E. coli NCM3722 delta-hslV, growth: N-lim chemostat, doubling time 6 h
[3] = E. coli NCM3722 delta-lon, growth: N-lim chemostat, doubling time 6 h
[4] = E. coli NCM3722 delta-smpB, growth: N-lim chemostat, doubling time 6 h
[5] = wild type E. coli NCM3722, growth: C-lim chemostat, doubling time 3 h
[6] = wild type E. coli NCM3722, growth: C-lim chemostat, doubling time 6 h
[7] = wild type E. coli NCM3722, growth: C-lim chemostat, doubling time 12 h
[8] = wild type E. coli NCM3722, growth: N-lim chemostat, doubling time 6 h
[9] = wild type E. coli NCM3722, growth: N-lim chemostat, doubling time 12 h
[10] = wild type E. coli NCM3722, growth: P-lim chemostat, doubling time 6 h
[11] = wild type E. coli NCM3722, growth: P-lim chemostat, doubling time 12 h
[12] = E. coli NCM3722 delta-clpP, growth: N-lim chemostat, doubling time 6 h

Row | Sequence | total protein half-life in vivo [1] [h] | total protein half-life in vivo [2] [h] | total protein half-life in vivo [3] [h] | total protein half-life in vivo [4] [h] | total protein half-life in vivo [5] [h] | total protein half-life in vivo [6] [h] | total protein half-life in vivo [7] [h] | total protein half-life in vivo [8] [h] | total protein half-life in vivo [9] [h] | total protein half-life in vivo [10] [h] | total protein half-life in vivo [11] [h] | total protein half-life in vivo [12] [h]
1 | MNRTDELRTARIESLVTPAELALRYPVTPGVATHVTDSRRRIEKILNGEDKRLLVIIGPCSIHDLTAAMEYATRLQSLRNQYQSRLEIVMRTYFEKPRTVVGWKGLISDPDLNGSYRVNHGLELARKLLLQVNELGVPTATEFLDMVTGQFIADLISWGAIGARTTESQIHREMASALSCPVGFKNGTDGNTRIAVDAIRAARASHMFLSPDKNGQMTIYQTSGNPYGHIIMRGGKKPNYHADDIAAACDTLHEFDLPEHLVVDFSHGNCQKQHRRQLEVCEDICQQIRNGSTAIAGIMAESFLREGTQKIVGSQPLTYGQSITDPCLGWEDTERLVEKLASAVDTRF | 5.25 ± 0.74 | 4.47 ± 0.041 | 4.88 ± 0.15 | 4.62 ± 0.51 | 3.089 ± 0.021 | 6.53 ± 1.7 | 10.3 ± 0.59 | 5.28 ± 0.75 | 7.35 ± 0.6 | 6.03 ± 0.34 | 11.8 ± 0.39 | –
2 | MNSFNEGVVSPLLSFWRRSLMLAGALLLTACSHNSSLPPFTASGFAEDQGAVRIWRKDSGDNVHLLAVFSPWRSGDTTTREYRWQGDNLTLININVYSKPPVNIRARFDDRGDLSFMQRESDGEKQQLSNDQIDLYRYRADQIRQISDALRQGRVVLRQGRWHAMEQTVTTCEGQTIKPDLDSQAIAHIERRQSRSSVDVSVAWLEAPEGSQLLLVANSDFCRWQPNEKTF | 6.47 ± 1.2 | 6.4 | 6.98 | 6.11 ± 0.48 | 3.17 ± 0.14 | – | 11.2 | 6.3 ± 0.074 | 13.2 ± 1.6 | 6.31 ± 0.4 | 14.1 ± 1.4 | 7.12 ± 0.33
3 | MNSHNITNESLALALMLVVVAILISHKEKLALEKDILWSVGRAIIQLIIVGYVLKYIFSVDDASLTLLMVLFICFNAAWNAQKRSKYIAKAFISSFIAITVGAGITLAVLILSGSIEFIPMQVIPIAGMIAGNAMVAVGLCYNNLGQRVISEQQQIQEKLSLGATPKQASAILIRDSIRAALIPTVDSAKTVGLVSLPGMMSGLIFAGIDPVKAIKYQIMVTFMLLSTASLSTIIACYLTYRKFYNSRHQLVVTQLKKK | – | 6 ± 0.27 | 5.893 ± 0.034 | 5.86 ± 0.42 | 3.19 ± 0.54 | 5.5591 ± 0.0054 | 9.93 ± 4.5 | 5.87 ± 0.81 | 8.27 ± 3 | 6.28 ± 0.1 | – | 6.44 ± 0.17
4 | MNSIFTEENLLAFTTAARFGSFSKAAEELGLTTSAISYTIKRMETGLDVVLFTRSTRSIELTESGRYFFRKATDLLNDFYAIKRRIDTISQGIEARVRICINQLLYTPKHTARLLQVLKKQFPTCQITVTTEVYNGVWDAIINNQANIAIGAPDTLLDGGGIDYTEIGAIRWAFAIAPDHPLAFVPEPIAESQLRLYPNIMVEDTAHTINKKVGWLLHGQESILVPDFNTKCQCQILGEGIGFLPDYMVREAMTQSLLVTRQIHNPRQDSRMLLATQHSATGQVTQWIKKQFAPNGILTGIYQDLLHREN | 5.9 | – | – | – | – | – | – | – | – | – | – | –
